Source: patent EP1674110A1 (NOVO NORDISK A/S, dated 2000)

Columns and labels:
[1] = target: T1, bovine pancreatic trypsin inhibitor (bovine, UniProt P00974 36-93); assay: scintillation proximity assay with 125I-BPTI
[2] = target: T1, bovine pancreatic trypsin inhibitor; assay: not described

| Binder | binding result [1] | binding result [2] |
| --- | --- | --- |
| native human heparin-binding protein (other, also called HBP; hHBP) IVGGRKARPRQFPFLASIQNQGRHFCGGALIHARFVMTAASCFQSQNPGVSTVVLGAYDLRRRERQSRQTFSISSMSENGYDPQQNLNDLMLLQLDREANLTSSVTILPLPLQNATVEAGTRCQVAGWGSQRSGGRLSRFPRFVNVTVTPEDQCRPNNVCTGVLTRRGGICNGDGGTPLVCEGLAHGVASFSLGPCGRGPDFFTRVALFRDWIDGVLNNPGP | binds |  |
| [R23S,F25E]HBP (other, Expressed in sf9 insect cells; also called [R23S,F25E]HBP mutant) IVGGRKARPRQFPFLASIQNQGSHECGGALIHARFVMTAASCFQSQNPGVSTVVLGAYDLRRRERQSRQTFSISSMSENGYDPQQNLNDLMLLQLDREANLTSSVTILPLPLQNATVEAGTRCQVAGWGSQRSGGRLSRFPRFVNVTVTPEDQCRPNNVCTGVLTRRGGICNGDGGTPLVCEGLAHGVASFSLGPCGRGPDFFTRVALFRDWIDGVLNNPGP | binds |  |
| HBP mutant (G175N) (other) IVGGRKARPRQFPFLASIQNQGRHFCGGALIHARFVMTAASCFQSQNPGVSTVVLGAYDLRRRERQSRQTFSISSMSENGYDPQQNLNDLMLLQLDREANLTSSVTILPLPLQNATVEAGTRCQVAGWGSQRSGGRLSRFPRFVNVTVTPEDQCRPNNVCTGVLTRRGGICNGDNGTPLVCEGLAHGVASFSLGPCGRGPDFFTRVALFRDWIDGVLNNPGP |  | no binding |
| [G175Q]HBP (other, also called [G175Q]HBP mutant) IVGGRKARPRQFPFLASIQNQGRHFCGGALIHARFVMTAASCFQSQNPGVSTVVLGAYDLRRRERQSRQTFSISSMSENGYDPQQNLNDLMLLQLDREANLTSSVTILPLPLQNATVEAGTRCQVAGWGSQRSGGRLSRFPRFVNVTVTPEDQCRPNNVCTGVLTRRGGICNGDQGTPLVCEGLAHGVASFSLGPCGRGPDFFTRVALFRDWIDGVLNNPGP | no binding |  |
